Earlier results on one substance are cited in paper PMC3265123.

Where two headings read alike, the source gives them in different places.

The target of data set [1] is gC1qR (Homo sapiens) (UniProt Q07021).
Data set [2] shares this target. This is another data set of the same source.

Chain of UniProt Q07021 (Q07021 74-282): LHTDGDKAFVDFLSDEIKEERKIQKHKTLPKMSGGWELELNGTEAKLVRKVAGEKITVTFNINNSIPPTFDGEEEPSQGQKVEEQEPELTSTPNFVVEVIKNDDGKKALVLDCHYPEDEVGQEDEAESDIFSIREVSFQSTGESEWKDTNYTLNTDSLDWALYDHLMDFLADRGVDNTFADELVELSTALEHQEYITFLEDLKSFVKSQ

As for “high molecular weight kininogen (from UniProt P01042)”, the Kd was 0.8 nM in data set [1] and 9 nM in data set [2].

The term Kd denotes the concentration at which binding is half-saturated.
